How the values were obtained:
[1] = tested on: CC(=O)N[C@H]1[C@@H](OP(=O)(O)OP(=O)(O)OC[C@H]2O[C@@H](n3ccc(=O)[nH]c3=O)[C@H](O)[C@@H]2O)O[C@H](CO)[C@@H](O)[C@@H]1O; assay: purified protein; settings: pH 7.5, 25 °C
[2] = target: T1, CMP-Neu5Ac synthase (HS6.5) (Campylobacter jejuni, UniProt P0DY07); assay: anion exchange chromatography, NMR and MS of CMP-Neu5Ac product; format: biochemical; settings: pH 7.5; Neu5Ac co-substrate, MgCl2, pyrophosphatase
T1 construct: full-length synthetic codon-optimised gene, N-terminal His6 tag kept, pET-28a(+), E. coli BL21(DE3)

[3] = tested on: CC(=O)N[C@@H]1[C@@H](OP(=O)(O)OP(=O)(O)OC[C@H]2O[C@@H](n3ccc(=O)[nH]c3=O)[C@H](O)[C@@H]2O)O[C@H](CO)[C@@H](O)[C@@H]1O; assay: purified protein; settings: pH 7.5, 25 °C, same buffer, 2.0 mM NAD+, 2.0 mM DTT, UDP-ManNAc generated in situ from UDP-GlcNAc with excess C2-epimerase (10 μM)
[4] = 50 mM HEPES, 250 mM KCl, 5% glycerol, excess C6-dehydrogenase (10 μM), 2.0 mM NAD+, 2.0 mM DTT
[5] = same buffer, 10 mM MgCl2, 2.0 mM PEP, 300 μM NADH

T1 sequence (P0DY07 whole entry): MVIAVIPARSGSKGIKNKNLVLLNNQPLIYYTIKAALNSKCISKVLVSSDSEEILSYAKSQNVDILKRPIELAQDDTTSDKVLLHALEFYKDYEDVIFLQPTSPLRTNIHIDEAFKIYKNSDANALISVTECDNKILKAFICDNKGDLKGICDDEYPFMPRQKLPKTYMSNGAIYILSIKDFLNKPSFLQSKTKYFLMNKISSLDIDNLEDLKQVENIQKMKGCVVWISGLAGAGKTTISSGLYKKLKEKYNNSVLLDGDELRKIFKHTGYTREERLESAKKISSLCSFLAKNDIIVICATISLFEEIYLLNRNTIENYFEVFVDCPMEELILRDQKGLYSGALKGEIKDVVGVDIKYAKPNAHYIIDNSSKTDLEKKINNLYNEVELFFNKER

## nonhydrolyzing UDP-GlcNAc C2-epimerase (HS11.17) (Campylobacter jejuni)
[1]; [4]
  Km: 1370 ± 50 µM
  kcat: 5.7 ± 0.2 s⁻¹
  kcat/Km: 4200 ± 200 M⁻¹ s⁻¹

## Nc1ccn([C@@H]2O[C@H](COP(=O)(O)OP(=O)(O)OP(=O)(O)O)[C@@H](O)[C@H]2O)c(=O)n1 [CTP]
[2]
  anion exchange chromatography, NMR and MS of CMP-Neu5Ac product: CMP-Neu5Ac synthase using CTP as the nucleotide donor

## hydrolyzing UDP-GlcNAc C2-epimerase (HS6.10) (Campylobacter jejuni subsp. jejuni 81116)
[1]; [5]
  Km: 160 ± 10 µM
  kcat: 3.1 ± 0.1 s⁻¹
  kcat/Km: 19900 ± 1000 M⁻¹ s⁻¹

## UDP-ManNAc C6-dehydrogenase (HS11.16) (Campylobacter jejuni)
[3]
  Km: 22 ± 1 µM
  kcat: 0.2 ± 0.01 s⁻¹
  kcat/Km: 8700 ± 400 M⁻¹ s⁻¹
